Results reported in a protein production outcome set (Wang et al. 2014).

Assay: label from the status in PepcDB records
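Also: failed if final PepcDB status was selected cloned or expressed and not failed if soluble or beyond.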

MSGDVQPRKRKDKRRKRDDDESSHGVHITKMGNEDLHLHVHHDHGTGGHWCAKIIFFALMAVLLGLVGLIIMENRGLEDLDTPLSESRFSKVFDGWVDEHRDEHDGHDVQEPSGEALDDHDEHDDHDDHEDEDEEPLTEELEEELEEEEEPTEEDEPAADEEYEEDEDEENNAGENITAEDAEEEEEEEDNDDEGTVEATVEATTEATTEATGEYEAEEDDEDEAAADDDAVESTEAPLSKAEEQEDDEDEDEEEQEIEESVEPERSQYAAQSAPAKDNNDDDDDDDQDKNDADDGDDDEFESLAQQFENDPEDTVPAKAVESEEQDQDQADEEEPKEEGSSWLASQIKPKEAAPAPAEKEDPFEQELRKANEEMIRENYAQALRSFNTLTTNFAHEPSAHLGRARLLELLAKKERSNQRLWEAIDAYKRYLAFGELVASNQEFQTAGESCIENLRFLGHHRQATTIHELLINRLPEDPRLRNQLSLTYLMVNNLQQVEKVAVETLKLWPNNAVAQLHYGLALRQFHADYAKALPYLKYAVESGEEGTQEAFFYLSLGETMQRLSMKSEALEVYGKGVAKGFFASLYQRSLYNEPRLRAQPFWQPKETGYERQLEKLTLNWRAIRDEGLALLGRSGFFEDEAELLRDKGVWQQYELYAQGRRVKDNCRRAPITCSLLEEFPESAGCRRGQVKFSVMQAKTHVWPHCGPTNCRLRAHLTLAAPEPEKASLRVAEQERTWREGELFIFDDSFEHEVWHNGSQSRLVLILDMWHPQLSAAQRRSLSPI
protein production: failed

MDVPSPCNVLMLYPLFTAESFWSFGESCKLMGVKRPAAPLGLITVAAMLPADWTVRLIDCNTSPLGDEDLAWADVVFTGGMLPQQADTLRLIELCRAAGKPVVVGGPDPTSSPHIYERADFRVLGEAESVIDEFIAAWEGGARSGVFTAPKFQADVTRTPVPRFDLLKFEDYLYIGVQYSRGCPFTCEFCDIIELYGRVPRTKTAEQMFVELETLYRMGYRGHLDFVDDNFIGNKKSLRLFLPQLAEWQRAHGYPFEFSTEASINLADDPELLEQMGAANFFGIFVGIESPDPATLVAMRKKQNTRRNIAESIHKIYAAGILVTAGFIVGFDNEKVSMAEAMIEFIEEAAIPVSMVGLLYALPNTQLTRRLEREGRLHPGHDLAPTIGADQCTDGINFDPVRPLRDILMDYKRVLERIYSPAAYAGRIDRLMTLLDRSRQRHALAEGDIRAKLGAMETVHRVVTAIPEARGPLWQTFMNCAKRDTSSARIAVQMIAAYAHLGPFSRKVIDAIDARLAALDDETVIPAATIDATAARHLA
protein production: failed

MSETLAVVRASRPNFLLLAPLCAGLGLAVAWQQGQAPELLHTFLVFLGAVLAHAAVNLLNEYDDFRSGLDMITERTPFSGGSGALPEVPTAARRVLWAGLGTLAVVVTIGLYFLWLRGLPLLVLGAAGVVLVLTYTRWITRSPLLCLLAPGMGFGPIMVLGTVIALGASIDTSALLASLVALLMVSELLLINQIPDAEADRAIGRRHLVITLGPEKAAHLVAGLLLASYGVIVAGMVSGYLAMTSLIALAPLPAAVWISLRLPRVLAMPDQLNRVLGANVAVLLSTLALLVTGLSL
protein production: failed

MNLPSRQWSSEVRQLVFIGFSAITAVVLSYSYVATVGLSEMLFAIVGAGLLLALVVILPVILLD
protein production: failed

MSKDVKPTRKNLMAIEDRIELSERGHDTLEKKRDGLIMEFMDILDQAQDVRSDLDENYERAQRNINMARAMEGDVAVRGAAAALKEHPEITTQSKNIMGVVVPQIESTKVKKSLDQRGYGLVGTSARIDEAADAYEELLETIILAAEVETAMKKMLDEIEKTKRRVNALEFKLLPELHEAQEYIEQKLEEQEREEIFRMKKIKAKKEEEEEENPVADTESAAEAAVTEAGQ
protein production: failed

MRIIKNIILISLLFAIILVSLFFGEKWVRTNVKNQAIVYNSQLNPTVMISGSSANNHRFDNLVAILNRQSTTHSLLRVQVNEDNSISYSGRIRPNDSQPYIVIGFQNNSDGYANIKRQAKWLEIAMKFLQKRYHFNHFNAFGHSNGGLDWTIYLEKYFNQKSSTIGTLMTVGSPFNFSEKSESNRTQMLTDLIKNRSKLPRDMTVYSIAGTETYNDDGIVPIESVLSGKYVFQKNVHSYTQITVSGNDSEHSDLPTNPQIVQLIQRDILDGRGQKQSSNPVFNNH
protein production: failed

MSLADISVIQSLPLSGSQAVTGRALNAGARLYFDWLNLNGGINGETIRLVARDDEQKIEQTVRNVRDMARVDNPVALLTVVGTANVEALMREGVLAEARLPLVGPATGASSMTTDPLVFPIKASYQQEIDKMITALVTIGVTRIGVLYQEDALGKEAITGVERTLKAHALAITAMASYPRNTANVGPAVDKLLAADVQAIFLGATAEPAAQFVRQYRARGGEAQLLGLSSIDPGILQKVAGLDAVRGYSLALVMPNPGKSVNPVIREFNRARAAVGAKDVDLSFRAVEGFVAAKVLAEAIRRAGPKPTREQVRHALTELRDYDVGGGFTVDFTDRSRPGSHYIELGVVGPNGLVIQEGHHHHHH
protein production: not failed
